Reference: publication PMC10978931, “Structure and function of Semaphorin-5A glycosaminoglycan interactions” (Nature Communications, 2024)

What was measured:
[1] = biological target: the molecule itself; assay: mass photometry; Sema5A_(sema-TSR1-7) alone, 100 nM (half of it at measurement), 100 mM NaCl
[2] = biological target: the molecule itself; assay: crystal structure; Sema5A_(TSR3-4), four crystal forms (apo, nitrate, sulfate, sucrose octasulfate), sitting drop at 20 °C, 1.56-2.72 Å

| Protein | stoichiometry N [1] | stoichiometry N [2] |
| --- | --- | --- |
| human Semaphorin-5A ectodomain Sema5A_(sema-TSR1-7) (residues 23E-944S) (domain or fragment, UniProt Q13591 23-944, looked up, Semaphorin-5A, human, UniProtKB Q13591, residues 23E-944S (sema, PSI and TSR1-7 domains); Glycosylated (11 predicted N-glycan sites); also called full-length ectodomain human Sema5A; Sema5A ectodomain; source: HEK293T, transfected, conditioned medium; purified (Ni-NTA, SEC); not shown: His6, C-terminal, kept) EAQGTTQCQRTEHPVISYKEIGPWLREFRAKNAVDFSQLTFDPGQKELVVGARNYLFRLQLEDLSLIQAVEWECDEATKKACYSKGKSKEECQNYIRVLLVGGDRLFTCGTNAFTPVCTNRSLSNLTEIHDQISGMARCPYSPQHNSTALLTAGGELYAATAMDFPGRDPAIYRSLGILPPLRTAQYNSKWLNEPNFVSSYDIGNFTYFFFRENAVEHDCGKTVFSRAARVCKNDIGGRFLLEDTWTTFMKARLNCSRPGEVPFYYNELQSTFFLPELDLIYGIFTTNVNSIAASAVCVFNLSAIAQAFSGPFKYQENSRSAWLPYPNPNPHFQCGTVDQGLYVNLTERNLQDAQKFILMHEVVQPVTTVPSFMEDNSRFSHVAVDVVQGREALVHIIYLATDYGTIKKVRVPLNQTSSSCLLEEIELFPERRREPIRSLQILHSQSVLFVGLREHVVKIPLKRCQFYRTRSTCIGAQDPYCGWDVVMKKCTSLEESLSMTQWEQSISACPTRNLTVDGHFGVWSPWTPCTHTDGSAVGSCLCRTRSCDSPAPQCGGWQCEGPGMEIANCSRNGGWTPWTSWSPCSTTCGIGFQVRQRSCSNPTPRHGGRVCVGQNREERYCNEHLLCPPHMFWTGWGPWERCTAQCGGGIQARRRICENGPDCAGCNVEYQSCNTNPCPELKKTTPWTPWTPVNISDNGGHYEQRFRYTCKARLADPNLLEVGRQRIEMRYCSSDGTSGCSTDGLSGDFLRAGRYSAHTVNGAWSAWTSWSQCSRDCSRGIRNRKRVCNNPEPKYGGMPCLGPSLEYQECNILPCPVDGVWSCWSPWTKCSATCGGGHYMRTRSCSNPAPAYGGDICLGLHTEEALCNTQPCPESWSEWSDWSECEASGVQVRARQCILLFPMGSQCSGNTTESRPCVFDS | 2 | – |
| human Semaphorin-5A TSR3-4, Sema5A_(TSR3-4) (residues 652P-765T) (domain or fragment, UniProt Q13591 652-765, looked up, C-mannosyl tryptophan at W656 and W659; N-glycans reduced to single residues by EndoF1 (crystals), Semaphorin-5A, human, UniProtKB Q13591, residues 652P-765T (thrombospondin type-1 repeats 3 and 4); The tag was cleaved by HRV 3C protease for crystallization; Inter-protomer disulfides C689-C689' and C733-C733'; source: HEK293T, transfected (with kifunensine for crystallization), purified (Ni-NTA, 3C cleavage, SEC); not shown: 3C-Avi-His6, C-terminal, cleaved) PHMFWTGWGPWERCTAQCGGGIQARRRICENGPDCAGCNVEYQSCNTNPCPELKKTTPWTPWTPVNISDNGGHYEQRFRYTCKARLADPNLLEVGRQRIEMRYCSSDGTSGCST | – | 2 |
